# Key:
# [1] = compound: CCOc1cc(O)c(C(=O)/C=C/c2ccc(Cl)cc2Cl)cc1CN1CCC=C(n2c(=O)[nH]c3ccccc32)C1; experiment: Mixed type inhibition of human wild-type full length SHP2 assessed as substrate Vmax at 10 uM using H-Glu-Phe-pTyr-Ala-Glu-Val-Gly-Arg-Ser-Pro-Pro-Asp-Pro-Ala-Lys as substrate by Lineweaver-Burk plot analysis (reference value: 5.55 +/- 0.49 uM/min)
# [2] = compound: CCOc1cc(O)c(C(=O)/C=C/c2ccc(Cl)cc2Cl)cc1CN1CCC=C(n2c(=O)[nH]c3ccccc32)C1; experiment: Mixed type inhibition of human wild-type full length SHP2 assessed as substrate Km at 10 uM using H-Glu-Phe-pTyr-Ala-Glu-Val-Gly-Arg-Ser-Pro-Pro-Asp-Pro-Ala-Lys as substrate by Lineweaver-Burk plot analysis (reference value: 0.034 +/- 0.012 mM)
# [3] = compound: CCOc1cc(O)c(C(=O)/C=C/c2ccc(Cl)cc2Cl)cc1CN1CCC=C(n2c(=O)[nH]c3ccccc32)C1; experiment: Mixed type inhibition of human wild-type full length SHP2 assessed as substrate Kcat at 10 uM using H-Glu-Phe-pTyr-Ala-Glu-Val-Gly-Arg-Ser-Pro-Pro-Asp-Pro-Ala-Lys as substrate by Lineweaver-Burk plot analysis (reference value: 3.19 +/- 0.28 Sec'-1)
# [4] = compound: CCOc1cc(O)c(C(=O)/C=C/c2ccc(Cl)cc2Cl)cc1CN1CCC=C(n2c(=O)[nH]c3ccccc32)C1; experiment: Mixed type inhibition of human wild-type full length SHP2 assessed as substrate Vmax at 20 uM using H-Glu-Phe-pTyr-Ala-Glu-Val-Gly-Arg-Ser-Pro-Pro-Asp-Pro-Ala-Lys as substrate by Lineweaver-Burk plot analysis (reference value: 5.55 +/- 0.49 uM/min)
# [5] = compound: CCOc1cc(O)c(C(=O)/C=C/c2ccc(Cl)cc2Cl)cc1CN1CCC=C(n2c(=O)[nH]c3ccccc32)C1; experiment: Mixed type inhibition of human wild-type full length SHP2 assessed as substrate Km at 20 uM using H-Glu-Phe-pTyr-Ala-Glu-Val-Gly-Arg-Ser-Pro-Pro-Asp-Pro-Ala-Lys as substrate by Lineweaver-Burk plot analysis (reference value: 0.034 +/- 0.012 mM)
# [6] = compound: CCOc1cc(O)c(C(=O)/C=C/c2ccc(Cl)cc2Cl)cc1CN1CCC=C(n2c(=O)[nH]c3ccccc32)C1; experiment: Mixed type inhibition of human wild-type full length SHP2 assessed as substrate Kcat at 20 uM using H-Glu-Phe-pTyr-Ala-Glu-Val-Gly-Arg-Ser-Pro-Pro-Asp-Pro-Ala-Lys as substrate by Lineweaver-Burk plot analysis (reference value: 3.19 +/- 0.28 Sec'-1)
# [7] = compound: CCOc1cc(O)c(C(=O)/C=C/c2ccc(Cl)cc2Cl)cc1CN1CCC=C(n2c(=O)[nH]c3ccccc32)C1; experiment: Mixed type inhibition of human wild-type full length SHP2 assessed as Kcat/Km ratio at 10 uM using H-Glu-Phe-pTyr-Ala-Glu-Val-Gly-Arg-Ser-Pro-Pro-Asp-Pro-Ala-Lys as substrate by Lineweaver-Burk plot analysis (reference value: 100.3 +/- 25 /mM/sec)
# [8] = compound: CCOc1cc(O)c(C(=O)/C=C/c2ccc(Cl)cc2Cl)cc1CN1CCC=C(n2c(=O)[nH]c3ccccc32)C1; experiment: Mixed type inhibition of human wild-type full length SHP2 assessed as Kcat/Km ratio at 20 uM using H-Glu-Phe-pTyr-Ala-Glu-Val-Gly-Arg-Ser-ProPro-Asp-Pro-Ala-Lys as substrate by Lineweaver-Burk plot analysis (reference value: 100.3 +/- 25 /mM/sec)
protein,measurement,setting,value
"Tyrosine-protein phosphatase non-receptor type 11 (Homo sapiens), Q06124 (protein) MTSRRWFHPNITGVEAENLLLTRGVDGSFLARPSKSNPGDFTLSVRRNGAVTHIKIQNTGDYYDLYGGEKFATLAELVQYYMEHHGQLKEKNGDVIELKYPLNCADPTSERWFHGHLSGKEAEKLLTEKGKHGSFLVRESQSHPGDFVLSVRTGDDKGESNDGKSKVTHVMIRCQELKYDVGGGERFDSLTDLVEHYKKNPMVETLGTVLQLKQPLNTTRINAAEIESRVRELSKLAETTDKVKQGFWEEFETLQQQECKLLYSRKEGQRQENKNKNRYKNILPFDHTRVVLHDGDPNEPVSDYINANIIMPEFETKCNNSKPKKSYIATQGCLQNTVNDFWRMVFQENSRVIVMTTKEVERGKSKCVKYWPDEYALKEYGVMRVRNVKESAAHDYTLRELKLSKVGQGNTERTVWQYHFRTWPDHGVPSDPGGVLDFLEEVHHKQESIMDAGPVVVHCSAGIGRTGTFIVIDILIDIIREKGVDCDIDVPKTIQMVRSQRSGMVQTEAQYRFIYMAVQHYIETLQRRIEEEQKSKRKGHEYTNIKYSLADQTSGDQSPLPPCTPTPPCAEMREDSARVYENVGLMQQQKSFR",Vmax,[1],2.6 µM/min
same,Km,[2],47 µM
same,kcat,[3],1.5 s⁻¹
same,Vmax,[4],1.5 µM/min
same,Km,[5],52 µM
same,kcat,[6],0.86 s⁻¹
same,kcat/Km,[7],33200 M⁻¹ s⁻¹
same,kcat/Km,[8],17200 M⁻¹ s⁻¹

# Reference: ChEMBL document CHEMBL4422612, “Small Molecule Inhibitor that Stabilizes the Autoinhibited Conformation of the Oncogenic Tyrosine Phosphatase SHP2” (J Med Chem, 2019)
